One may read the Kd as the concentration at which binding is half-saturated. Lower therefore signals higher affinity.

The text below walks through data of publication PMC10202413.

The data set concerns the target T1, protein tyrosine kinase 7 (PTK-7) on HCT-116 cells (UniProt Q13308).
T1 sequence: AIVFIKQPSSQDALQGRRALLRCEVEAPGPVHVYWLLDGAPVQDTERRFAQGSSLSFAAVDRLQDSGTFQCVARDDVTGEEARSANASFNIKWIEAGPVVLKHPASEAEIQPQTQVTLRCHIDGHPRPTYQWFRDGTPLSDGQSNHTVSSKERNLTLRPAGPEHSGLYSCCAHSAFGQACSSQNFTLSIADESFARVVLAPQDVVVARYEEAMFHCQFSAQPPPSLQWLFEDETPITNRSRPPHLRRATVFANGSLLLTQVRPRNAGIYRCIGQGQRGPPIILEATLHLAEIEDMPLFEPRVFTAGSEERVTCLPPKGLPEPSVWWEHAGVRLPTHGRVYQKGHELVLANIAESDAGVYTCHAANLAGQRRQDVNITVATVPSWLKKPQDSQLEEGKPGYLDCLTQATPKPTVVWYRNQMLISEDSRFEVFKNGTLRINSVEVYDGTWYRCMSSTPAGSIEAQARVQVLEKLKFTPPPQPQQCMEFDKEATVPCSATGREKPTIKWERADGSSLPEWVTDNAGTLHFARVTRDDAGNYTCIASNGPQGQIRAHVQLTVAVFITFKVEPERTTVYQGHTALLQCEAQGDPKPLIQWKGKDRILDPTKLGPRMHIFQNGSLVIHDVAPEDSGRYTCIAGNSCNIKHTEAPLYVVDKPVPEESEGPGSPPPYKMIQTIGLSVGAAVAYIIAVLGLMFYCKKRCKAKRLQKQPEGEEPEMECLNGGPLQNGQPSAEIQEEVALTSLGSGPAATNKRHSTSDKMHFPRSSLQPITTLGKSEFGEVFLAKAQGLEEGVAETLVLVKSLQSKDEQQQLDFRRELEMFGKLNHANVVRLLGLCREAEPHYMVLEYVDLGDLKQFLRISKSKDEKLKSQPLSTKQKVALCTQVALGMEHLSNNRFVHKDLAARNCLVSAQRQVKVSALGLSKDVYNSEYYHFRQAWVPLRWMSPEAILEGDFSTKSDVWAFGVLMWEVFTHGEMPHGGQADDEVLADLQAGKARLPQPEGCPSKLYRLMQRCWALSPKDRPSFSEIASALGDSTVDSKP
Put plainly: flow cytometry, cell binding. Particulars: 5 mM Mg2+, Whole cells washed in D-PBS with 4.5 g/L glucose and 5 mM MgCl2, 300,000 cells in 200 ul binding buffer (composition and pH not stated), on ice 30 min …. (In general: Flow cytometry measures light scatter and fluorescence of single cells or particles in a stream.)

As to “ATCTAACTGCTGCGCCGCCGGGAAAATACTGTACGGTTAGA [SGC8]”, the dissociation constant Kd was determined as 1.88 nM. This lies in the single-digit nanomolar range.

In the case of “ATCTAACTGCTGCGCCGCCGGGAAAATACTGTACGGTTAGA [NOTA-SGC8]”, the Kd (5' amino coupled to p-SCN-Bn-NOTA) was 3.49 nM. This lies in the single-digit nanomolar range.
